# Results published in IntAct's records for PubMed 22982544.
# B1: - (Plasmodium falciparum (isolate 3D7)), C0H519 (parent)
# chain: MSDQINVKHKIGDTCRKLYSYFKTVNNTSTFIQNGTLTPSEFVDSGDFLVYKFKTWEWQEADKDRVVPYLPENKQFLITKNVPCKQRIKDLNNIVHDLKIVDNDWLLPSYEEDNNPTDIYEYLPNSEYTINDKNIYNYEEEEEDDNCDEAIDINNFYMENNLIKEHDPASINSTSCYSKNMLHDNLMKIRTYDVSITYDKYYQTPRIWLFGYNENGDPLKSEEIFEDILSDYSYKTVTYDPHPCTGVMTASIHPCKHAEAILNVVNNWISEEKEPRHDLYLLFLLKFISGVIPTIEYDFTTDIEIPRDSNAGL
# B2: Autophagy-related protein (Plasmodium falciparum (isolate 3D7)), Q8IJK2 (parent)
# chain: MPSLKDEVSFENRVAETHKIRSKYPNRIPVVCERANRSNLPIIEKKKFLVPMNMLVGEFKFILHQHINQSAYGSNMKLFRERTIYLFVNNIVPKTGLLMQDLYEMYKDEDGYLYMEYSCESCLG
# Variants of: B1
# Conditions: with q8ijk2, Q8IJK2
row,Variant,effect of a mutation on the interaction
1,MSDQINVKHKIGDTCRKLYSYFKTVNNTSTFIQNGTLTPSEFVDSGDFLVYKFKTWEWQEADKDRVVPYLPENKQFLITKNVPCKQRIKDLNNIVHDLKIVDNDALLPSYEEDNNPTDIYEYLPNSEYTINDKNIYNYEEEEEDDNCDEAIDINNFYMENNLIKEHDPASINSTSCYSKNMLHDNLMKIRTYDVSITYDKYYQTPRIWLFGYNENGDPLKSEEIFEDILSDYSYKTVTYDPHPCTGVMTASIHPCKHAEAILNVVNNWISEEKEPRHDLYLLFLLKFISGVIPTIEYDFTTDIEIPRDSNAGL [W105A],decreasing interaction

# Variants of: B2
# Conditions: with c0h519, C0H519
row,Variant,effect of a mutation on the interaction
1,MPSLKDEVSFENRVAETHKIRSKYPNRIPVVCERANRSNLPIIASAKFLVPMNMLVGEFKFILHQHINQSAYGSNMKLFRERTIYLFVNNIVPKTGLLMQDLYEMYKDEDGYLYMEYSCESCLG [E44A;K45S;K46A],decreasing interaction
2,MPSLKDEVSFENRVAETHKIRSKYPNEIPVVCERANRSNLPIIEKKKFLVPMNMLVGEFKFILHQHINQSAYGSNMKLFRERTIYLFVNNIVPKTGLLMQDLYEMYKDEDGYLYMEYSCESCLG [R27E],disrupting interaction
3,MPSLKDEVSFENRVAETHEIRSKYPNRIPVVCERANRSNLPIIEKKEFLVPMNMLVGEFKFILHQHINQSAYGSNMKLFRERTIYLFVNNIVPKTGLLMQDLYEMYKDEDGYLYMEYSCESCLG [K19E;K47E],disrupting interaction
4,MPSLKDEVSFENRVAETHKIRSKYPNRIPVVCERANRSNLPIIEKKEFLVPMNMLVGEFKFILHQHINQSAYGSNMKLFRERTIYLFVNNIVPKTGLLMQDLYEMYKDEDGYLYMEYSCESCLG [K47E],disrupting interaction
5,MPSLKDEVSFENRVAETHKIRSKYPNRIPVVCERANRSNLPIIEKKKFAVPMNMLVGEFKFILHQHINQSAYGSNMKLFRERTIYLFVNNIVPKTGLLMQDLYEMYKDEDGYLYMEYSCESCLG [L49A],decreasing interaction
